Reference: paper PMC7703470 (Biosensors & Bioelectronics, 2020)

B1: 12B3 scFv-Fc antibody (scFv, V domains shown)
VH: AVTLDESGGGLRTPRGALSLVCKASGFSFSDHGMAWVRQAPGKGLEWVAGISSGGSGTEYGAAVKGRATISRDNGQSTVRLQLNNLRAEDTGTYYCAKTTSPYCGWSGSLDYDCGAEDIDAWGHGTEVIVSS
VL: LTQPSSVSANLGETVKITCSGDSNYYGWYQQKSPGSAPVTVIYDNAKRPSNIPSRFSGSKSGSTNTLTITGVQAEDEAVYFCGGWDSDTGTFGAGTTLTVL
B2: 12H1 scFv-Fc antibody (scFv, V domains shown)
VH: AVTLDESGGGLQTPGGTLSLVCKASGFTFSDRGMHWVRQAPGKGLEWVAGIRGDGSYTDYAPAVKGRATISRDNGQSTVRLQLNNLRAEDTATYYCAKSSYKCSTWSCRGYESDSIDAWGHGTEVIVSS
VL: LTQPSSVSANLGGTVKMTCSGGSSGYGWYQQKSPGSAPVTLIYYNDKRPSGIPSRFSGSKSDSTGTLTITGVQAEDEAVYYCGNTDSSYVGMFGAGTTLTVL
B3: 12H8 scFv-Fc antibody (scFv, V domains shown)
VH: AVTLDESGGGLQTPGGGLSLVCKASGFTFSNYGMDWVRQAPGKGLEWVAGIDNDGSGRGYGAAVKGRATISRDNGQSTVRLQLNNLRAEDTATYYCAKSTYGGRGCCDTTDAWGHGTEVIVSS
VL: LTQPSSVSANPGETVKITCSGGGSWYGWFQQKSPGSAPVTVINANTNRPSDIPSRFSGSKSGSTGTLTITGVQADDEAVYFCGSYDSSTDSGIFGAGTTLTVL
B4: 1G5 scFv-Fc antibody (scFv, V domains shown)
VH: AVTLDESGGGLQTPGGALSLVCKASGFTFSSYGMFWVRQAPGKGLEFVASITNTGSYTTYGAAVEGRATISRDNGQSTVRLQLNNLRAEDTAIYYCAKTSCNNCGWSGPGYIDAWGHGTEVIVSS
VL: LTQPSSVSANLGGTVKITCSGGGNDYGWYQQKAPGSAPVTVINTNDKRPSDIPSRFSGSKSGSTATLTITGVQAEDEAVYFCGAYDSSTSADIFGAGTTLTVL

Biological target: SARS-CoV-2 nucleocapsid protein (NP) (Severe acute respiratory syndrome …, UniProt P0DTC9)
Assay: BLI

Row | Binder | Kd
1 | B1 | 8.47 nM
2 | B2 | 18.3 nM
3 | B3 | 1.31 nM
4 | B4 | 2.86 nM
